Data taken from patent US20230227538A1 (published 2023).

Tests used:
SpikeS2P = assay: SPR
SC2 spike ECD = assay: SPR
[1] = target: SARS-CoV-2 Spike receptor binding domain (RBD) (SARS-CoV-2, UniProt P0DTC2 319-541); assay: flow

B1: mNb6 (VHH)
VHH: QVQLVESGGGLVQAGGSLRLSCAASGYIFGRNAMGWYRQAPGKERELVAGITRRGSITYYADSVKGRFTISRDNAKNTVYLQMNSLKPEDTAVYYCAADPASPAYGDYWGQGTQVTVSS
With B1 the Kd (SpikeS2P) was 0.45 nM.

B2: NbCOV11 (VHH)
VHH: HVQLVESGGGLVQAGGSLRLSCAVSGASAERVGWFRRAPGKEREFVAAIGANGGSTNYLDSVKGRFTISRDNAKNTVYLQMNSLKPQDTAVYYCAARNLETFDYTYWGRGTQVTVSS
For B2, the Kd (SC2 spike ECD) was 141 nM.

B3: Nb6 (AeroNab6, NbCOV6, clone pNbCOV006A) (VHH)
VHH: QVQLVESGGGLVQAGGSLRLSCAASGIIFGRNAMGWYRQAPGKERELVAGITRRGSITYYADSVKGRFTISRDNAKNTVYLQMNSLKPEDTAVYYCAADPASPAPGDYWGQGTQVTVSS
Work on B3 yielded an EC50 [1] of 30 nM.
